120 sequences from the supplement of paper PMC10126150 can be followed below.

± gives the standard deviation of the averaged measurements.

The test system of this data set is ATP. Description: switch fluorescence ratio, 500 uM ATP over buffer (Cy3 cluster intensity, sum of 5 cycles each) (fold (ratio)); higher = stronger signal-on switching upon ATP binding; sequences stand for … in TCGTCGGCAGCGTCAGATGTGTATAAGAGACAGTTTTTTTTTTTTTTTTTTTTTTTTT…TC. The note with it: aptamer strand: ATP DNA aptamer (quencher-CACCTGGGGGAGTATTGCGGAGGAAGG + anchor), 100 nM annealed; ATP concentration: 500 uM. The procedure, abridged: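 Cy3-labelled switching-strand clusters on a modified Illumina MiSeq flow-cell were annealed to 100 nM quencher-labelled ATP aptamer, imaged in selection buffer, then imaged after 15 min with 500 uM ATP at 22 °C. Five buffer/ATP cycles ran, with NaOH stripping and re-annealing between them. The fluorescence ratio is summed target-cycle over summed buffer-cycle Cy3 intensity per cluster, averaged per switch-domain sequence. Clusters outside 100-1000 RFU were excluded.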
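Also: ATP exposure 15 min at 22 °C before imaging.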

Consider TAATAATTGG, for which the switch fluorescence ratio amounted to 1.04 ± 0.057.

On to TAATACGGCG, for which the switch fluorescence ratio came to 1.009 ± 0.01.

Regarding TAATAGATCC, the switch fluorescence ratio came to 1.01 ± 0.067.

Regarding TAATAGTGTT, the switch fluorescence ratio came to 1.024 ± 0.0092.

Take TAATAGTTCT: the switch fluorescence ratio amounted to 1.01 ± 0.026.

Consider TAATATAGTT, for which the switch fluorescence ratio is 1.01 ± 0.027.

Turning to TAATATGGGC, the switch fluorescence ratio came to 1.02 ± 0.034.

For TAATATTAAC, the switch fluorescence ratio was 1.02 ± 0.03.

As for TAATATTTTA, the switch fluorescence ratio is 0.987 ± 0.014.

As to TAATATTTTT, the switch fluorescence ratio turned out to be 1 ± 0.017.

TAATCAATGT: the switch fluorescence ratio worked out at 0.994 ± 0.011.

Turning to TAATCACGTC, the switch fluorescence ratio was found to be 1.04 ± 0.048.

With TAATCCGCGG, the switch fluorescence ratio was 1.14 ± 0.041.

As for TAATCGACTT, the switch fluorescence ratio turned out to be 1.02 ± 0.014.

Take TAATCGGGTT: the switch fluorescence ratio stood at 0.996 ± 0.017.

As to TAATCGTGGA, the switch fluorescence ratio was found to be 1.03 ± 0.022.

As to TAATCGTGTG, the switch fluorescence ratio was 0.985 ± 0.067.

Regarding TAATCGTTTG, the switch fluorescence ratio came out at 0.962 ± 0.01.

Turning to TAATGACCAA, the switch fluorescence ratio came out at 1.019 ± 0.0071.

Regarding TAATGACTTG, the switch fluorescence ratio is 0.953 ± 0.031.

For TAATGAGCTA, the switch fluorescence ratio came to 0.987 ± 0.042.

On to TAATGAGTCA, for which the switch fluorescence ratio was determined as 1 ± 0.081.

Take TAATGAGTTA: the switch fluorescence ratio stood at 0.9658 ± 0.0012.

With TAATGCATTT, the switch fluorescence ratio stood at 1.01 ± 0.017.

For TAATGCGTTT, the switch fluorescence ratio worked out at 0.98 ± 0.0039.

Take TAATGCTTAT: the switch fluorescence ratio turned out to be 1.06 ± 0.12.

As to TAATGCTTTT, the switch fluorescence ratio was 0.978 ± 0.03.

Regarding TAATGGAAAA, the switch fluorescence ratio stood at 1.15 ± 0.28.

As to TAATGGAGTT, the switch fluorescence ratio was 1 ± 0.029.

With TAATGGGGCC, the switch fluorescence ratio turned out to be 1.057 ± 0.005.

Turning to TAATGGGGGT, the switch fluorescence ratio came out at 0.994 ± 0.025.

As for TAATGGGTTT, the switch fluorescence ratio worked out at 0.999 ± 0.062.

With TAATGGTCGG, the switch fluorescence ratio amounted to 0.985 ± 0.053.

As to TAATGGTT, the switch fluorescence ratio worked out at 0.979 ± 0.011.

With TAATGTATGT, the switch fluorescence ratio is 0.977 ± 0.018.

For the sequence TAATGTATTA, the switch fluorescence ratio was 1.01 ± 0.027.

For TAATGTGTAA, the switch fluorescence ratio was 0.9944 ± 0.0052.

As for TAATGTTATT, the switch fluorescence ratio stood at 0.987 ± 0.017.

Turning to TAATTAATGG, the switch fluorescence ratio amounted to 1 ± 0.031.

With TAATTACCTC, the switch fluorescence ratio amounted to 1.04 ± 0.013.

On to TAATTAGTGG, for which the switch fluorescence ratio turned out to be 0.9832 ± 0.0051.

Consider TAATTAGTGT, for which the switch fluorescence ratio was found to be 0.979 ± 0.013.

Consider TAATTATGTG, for which the switch fluorescence ratio is 0.986 ± 0.024.

As to TAATTCAGGG, the switch fluorescence ratio stood at 1.03 ± 0.032.

With TAATTCATCG, the switch fluorescence ratio was determined as 0.97196 ± 0.00069.

On to TAATTCTTGG, for which the switch fluorescence ratio worked out at 0.972 ± 0.046.

For the sequence TAATTGATGT, the switch fluorescence ratio was found to be 1.01 ± 0.06.

Regarding TAATTGGACG, the switch fluorescence ratio was found to be 1.12 ± 0.062.

Turning to TAATTGGATG, the switch fluorescence ratio worked out at 0.992 ± 0.027.

Take TAATTGGCAA: the switch fluorescence ratio was 1.004 ± 0.0017.

As to TAATTGGGAA, the switch fluorescence ratio turned out to be 0.997 ± 0.035.

Consider TAATTGGGGT, for which the switch fluorescence ratio came to 0.994 ± 0.018.

In the case of TAATTGGTGG, the switch fluorescence ratio was determined as 1.01 ± 0.029.

On to TAATTGTGCT, for which the switch fluorescence ratio is 0.979 ± 0.026.

As to TAATTGTTGT, the switch fluorescence ratio is 1.003 ± 0.005.

Take TAATTTATAC: the switch fluorescence ratio turned out to be 1.053 ± 0.0054.

Consider TAATTTCTAC, for which the switch fluorescence ratio is 1.005 ± 0.0054.

For TAATTTCTTA, the switch fluorescence ratio is 0.996 ± 0.014.

Take TAATTTCTTG: the switch fluorescence ratio came to 1.013 ± 0.0018.

TAATTTGCGT: the switch fluorescence ratio turned out to be 1 ± 0.019.

TAATTTGTGC: the switch fluorescence ratio was determined as 1.01 ± 0.044.

As to TAATTTGTGG, the switch fluorescence ratio was determined as 0.995 ± 0.023.

TAATTTTAGG: the switch fluorescence ratio was 0.996 ± 0.012.

As to TAATTTTCCG, the switch fluorescence ratio worked out at 1.02 ± 0.043.

Turning to TAATTTTTAA, the switch fluorescence ratio was 0.99 ± 0.029.

As for TACAAAGAGT, the switch fluorescence ratio was determined as 1.04 ± 0.025.

Consider TACAAGAAGG, for which the switch fluorescence ratio was determined as 1.015 ± 0.0066.

Regarding TACAATTTTG, the switch fluorescence ratio amounted to 1.013 ± 0.0017.

For TACACCGTCA, the switch fluorescence ratio was 1.08 ± 0.023.

On to TACAGAGTTT, for which the switch fluorescence ratio was found to be 0.977 ± 0.015.

Regarding TACAGCTGCG, the switch fluorescence ratio was found to be 1.007 ± 0.0015.

On to TACAGCTGTG, for which the switch fluorescence ratio stood at 0.9865 ± 0.0083.

TACAGTTGGC: the switch fluorescence ratio is 1.03 ± 0.084.

Turning to TACATACTCT, the switch fluorescence ratio came out at 1.29 ± 0.023.

Consider TACATAGGTT, for which the switch fluorescence ratio is 1.048 ± 0.006.

With TACATGGGTG, the switch fluorescence ratio worked out at 1.01 ± 0.054.

For the sequence TACATGTGCT, the switch fluorescence ratio was 0.996 ± 0.035.

Consider TACATTGACG, for which the switch fluorescence ratio amounted to 1.025 ± 0.0089.

Regarding TACCAAAGGT, the switch fluorescence ratio was determined as 1.02 ± 0.031.

For TACCAAGGGA, the switch fluorescence ratio came out at 0.991 ± 0.00097.

Regarding TACCACGTTG, the switch fluorescence ratio is 1 ± 0.009.

For the sequence TACCAGCCGA, the switch fluorescence ratio amounted to 1.06 ± 0.043.

As to TACCATGGCG, the switch fluorescence ratio came out at 0.9983 ± 0.0058.

As to TACCCAAAAT, the switch fluorescence ratio stood at 1.1 ± 0.15.

For the sequence TACCCAGATT, the switch fluorescence ratio is 1.66 ± 0.98.

With TACCCATTAC, the switch fluorescence ratio is 1.72 ± 0.041.

Regarding TACCCGGACA, the switch fluorescence ratio amounted to 1.091 ± 0.0053.

On to TACCGGGCAC, for which the switch fluorescence ratio worked out at 1.11 ± 0.03.

Take TACCGTATTT: the switch fluorescence ratio was determined as 1.04 ± 0.027.

As to TACCTAGAAC, the switch fluorescence ratio came out at 1.07 ± 0.056.

Regarding TACCTGAAAA, the switch fluorescence ratio was determined as 0.985 ± 0.022.

In the case of TACCTGCAGC, the switch fluorescence ratio came out at 1.12 ± 0.064.

TACCTGCCGG: the switch fluorescence ratio is 1.08 ± 0.026.

Turning to TACCTTGAGC, the switch fluorescence ratio is 0.9999 ± 0.0034.

As for TACGAAATGT, the switch fluorescence ratio was found to be 1.041 ± 0.0098.

Consider TACGAACTAT, for which the switch fluorescence ratio is 1.33 ± 0.052.

With TACGAATAGA, the switch fluorescence ratio is 1.056 ± 0.0097.

On to TACGAATATT, for which the switch fluorescence ratio came out at 1.025 ± 0.0046.

Turning to TACGACGGGC, the switch fluorescence ratio was found to be 1.57 ± 0.5.

On to TACGAGCCAC, for which the switch fluorescence ratio is 1.31 ± 0.032.

TACGAGCCGC: the switch fluorescence ratio stood at 0.989 ± 0.057.

In the case of TACGAGGTTG, the switch fluorescence ratio came to 1 ± 0.02.

On to TACGAGTCGT, for which the switch fluorescence ratio is 1.01 ± 0.022.

For TACGATGACT, the switch fluorescence ratio was 1.19 ± 0.11.

As for TACGATGAGT, the switch fluorescence ratio came out at 0.996 ± 0.02.

Take TACGATGGTA: the switch fluorescence ratio turned out to be 0.9792 ± 0.0049.

Regarding TACGCCGGAA, the switch fluorescence ratio stood at 1.33 ± 0.37.

For the sequence TACGCTGCAG, the switch fluorescence ratio amounted to 1.05 ± 0.049.

On to TACGGCCGAG, for which the switch fluorescence ratio came to 1 ± 0.0029.

Regarding TACGGCGGGG, the switch fluorescence ratio worked out at 1.02 ± 0.047.

As for TACGGGATGG, the switch fluorescence ratio came to 0.989 ± 0.029.

Regarding TACGGGCGGA, the switch fluorescence ratio is 1.02 ± 0.034.

For the sequence TACGGGGGAT, the switch fluorescence ratio was 1.02 ± 0.054.

On to TACGGGTATA, for which the switch fluorescence ratio was 1.01 ± 0.025.

As for TACGGTGGGT, the switch fluorescence ratio amounted to 0.982 ± 0.032.

TACGTACGTT: the switch fluorescence ratio was 1.41 ± 0.062.

On to TACGTAGGCA, for which the switch fluorescence ratio came to 1.073 ± 0.0077.

TACGTGCATA: the switch fluorescence ratio came out at 1.122 ± 0.0033.

For TACGTGGCTG, the switch fluorescence ratio turned out to be 1.05 ± 0.073.

As to TACGTGGTAG, the switch fluorescence ratio was 1.06 ± 0.05.
